Drawing on paper PMC7175333, this text covers stoichiometry N for two substances.

The target of experiment [1] is LS_HA_NC99 (lumazine synthase nanoparticle displaying the receptor binding domain of the head of influenza hemagglutinin, H1N1 A/New Caledonia/20/1999) (Aquifex aeolicus | influenza A virus H1N1 A/New Caledonia/20/1999). In words: SEC + SEC-MALS + other: negative stain electron microscopy.
Experiment [2] has as its target DLnano_LS_GT8 (DNA‐launched lumazine synthase nanoparticle decorated with eOD‐GT8, produced in vivo) (Aquifex aeolicus). Kind of experiment: native gel or EMSA; pseudo-native PAGE (3-8% Tris-acetate gel, LDS buffer at room temperature, no boiling) of mouse muscle homogenates 4 d.p.i., blotted with VRC01; SEC-purified recombinant standards alongside. On the technique in general: A gel shift assay detects complexes by their altered migration in electrophoresis.

With “LS_HA_NC99 (lumazine synthase nanoparticle displaying the receptor binding domain of the head of influenza hemagglutinin, H1N1 A/New Caledonia/20/1999)”, in experiment [1], the stoichiometry N is 60.
In the case of “DLnano_LS_GT8 (DNA‐launched lumazine synthase nanoparticle decorated with eOD‐GT8, produced in vivo)”, the stoichiometry N in experiment [2] amounted to 60.

The stoichiometry N is the number of molecules, sites or subunits per partner or assembly.
